Measured values as given in patent US20090011979A1 (published 2009).

How the values were obtained:
[1] = target: T1, mouse IL-18 (mouse, UniProt P70380 36-192); assay: SPR
T1 chain: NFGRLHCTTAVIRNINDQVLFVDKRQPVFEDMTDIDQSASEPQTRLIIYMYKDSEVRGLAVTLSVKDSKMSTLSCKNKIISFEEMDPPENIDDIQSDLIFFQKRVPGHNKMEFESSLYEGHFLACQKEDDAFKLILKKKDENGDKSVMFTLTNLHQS

[2] = target: human IL-18 (human, UniProt Q14116 37-193); assay: SPR
human IL-18, sequence (Q14116 37-193): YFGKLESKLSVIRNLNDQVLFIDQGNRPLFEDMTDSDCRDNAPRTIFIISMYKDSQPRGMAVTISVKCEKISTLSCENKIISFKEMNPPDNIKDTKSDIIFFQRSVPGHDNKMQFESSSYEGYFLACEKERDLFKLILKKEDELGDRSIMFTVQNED

B1: untagged YCI (YMTV IL-18 bp, YMTV Cytokine Inhibitor, without tag) (other)
chain: EKECDKHRSVNIQVPMKETSEVLLRCTGSSYFKHFSYVYWLVGESETVDQLQQNSGYGETSHPSKPHECGNLPSADLVLTNMTEKMRDTKLTCVLMDPDGHIDESLVLREVWDCFNKT
B1 was tested, and the Kd [1] was 7.6 nM and the Kd [2] was 8.13 nM.
